# From article PMC5908291, “The JmjN domain as a dimerization interface and a targeted inhibitor of KDM4 demethylase activity” (Oncotarget, 2018)
# B1: KDM4C with a C-terminal YN or YC tag (enzyme, human, UniProt Q9H3R0 1-1056, looked up)
# chain: MEVAEVESPLNPSCKIMTFRPSMEEFREFNKYLAYMESKGAHRAGLAKVIPPKEWKPRQCYDDIDNLLIPAPIQQMVTGQSGLFTQYNIQKKAMTVKEFRQLANSGKYCTPRYLDYEDLERKYWKNLTFVAPIYGADINGSIYDEGVDEWNIARLNTVLDVVEEECGISIEGVNTPYLYFGMWKTTFAWHTEDMDLYSINYLHFGEPKSWYAIPPEHGKRLERLAQGFFPSSSQGCDAFLRHKMTLISPSVLKKYGIPFDKITQEAGEFMITFPYGYHAGFNHGFNCAESTNFATVRWIDYGKVAKLCTCRKDMVKISMDIFVRKFQPDRYQLWKQGKDIYTIDHTKPTPASTPEVKAWLQRRRKVRKASRSFQCARSTSKRPKADEEEEVSDEVDGAEVPNPDSVTDDLKVSEKSEAAVKLRNTEASSEEESSASRMQVEQNLSDHIKLSGNSCLSTSVTEDIKTEDDKAYAYRSVPSISSEADDSIPLSSGYEKPEKSDPSELSWPKSPESCSSVAESNGVLTEGEESDVESHGNGLEPGEIPAVPSGERNSFKVPSIAEGENKTSKSWRHPLSRPPARSPMTLVKQQAPSDEELPEVLSIEEEVEETESWAKPLIHLWQTKSPNFAAEQEYNATVARMKPHCAICTLLMPYHKPDSSNEENDARWETKLDEVVTSEGKTKPLIPEMCFIYSEENIEYSPPNAFLEEDGTSLLISCAKCCVRVHASCYGIPSHEICDGWLCARCKRNAWTAECCLCNLRGGALKQTKNNKWAHVMCAVAVPEVRFTNVPERTQIDVGRIPLQRLKLKCIFCRHRVKRVSGACIQCSYGRCPASFHVTCAHAAGVLMEPDDWPYVVNITCFRHKVNPNVKSKACEKVISVGQTVITKHRNTRYYSCRVMAVTSQTFYEVMFDDGSFSRDTFPEDIVSRDCLKLGPPAEGEVVQVKWPDGKLYGAKYFGSNIAHMYQVEFEDGSQIAMKREDIYTLDEELPKRVKARFSTASDMRFEDTFYGADIIQGERKRQRVLSSRFKNEYVADPVYRTFLKSSFQKKCQKRQ
# notes: Lysine demethylase KDM4C (GASC1), human, ORF amplified from pCMV-HA-GASC1; 1056 aa as printed; BiFC pair: one molecule stands for the YN and the YC conjugate; also called KDM4C-YN; KDM4C-YC; source: HEK293, transiently transfected, in cells; not shown: YN (Venus YFP residues 1-172) on one copy or YC (Venus YFP residues 155-238) on the other, C-terminal, kept
# Legend:
# Assay in all cases: split reporter (BiFC, NanoBiT); BiFC (Venus YN + YC), IF microscopy of fixed HEK293 cells with quantitative image analysis (Imaris): mean reconstituted YFP fluorescence in each anti-YFP positive cell, >100 cells for each transfection
# [1] = target: KDM4B with a C-terminal YN or YC tag (human) (UniProt O94953)
# Sequence of KDM4B with a C-terminal YN or YC tag (human) (O94953 whole entry): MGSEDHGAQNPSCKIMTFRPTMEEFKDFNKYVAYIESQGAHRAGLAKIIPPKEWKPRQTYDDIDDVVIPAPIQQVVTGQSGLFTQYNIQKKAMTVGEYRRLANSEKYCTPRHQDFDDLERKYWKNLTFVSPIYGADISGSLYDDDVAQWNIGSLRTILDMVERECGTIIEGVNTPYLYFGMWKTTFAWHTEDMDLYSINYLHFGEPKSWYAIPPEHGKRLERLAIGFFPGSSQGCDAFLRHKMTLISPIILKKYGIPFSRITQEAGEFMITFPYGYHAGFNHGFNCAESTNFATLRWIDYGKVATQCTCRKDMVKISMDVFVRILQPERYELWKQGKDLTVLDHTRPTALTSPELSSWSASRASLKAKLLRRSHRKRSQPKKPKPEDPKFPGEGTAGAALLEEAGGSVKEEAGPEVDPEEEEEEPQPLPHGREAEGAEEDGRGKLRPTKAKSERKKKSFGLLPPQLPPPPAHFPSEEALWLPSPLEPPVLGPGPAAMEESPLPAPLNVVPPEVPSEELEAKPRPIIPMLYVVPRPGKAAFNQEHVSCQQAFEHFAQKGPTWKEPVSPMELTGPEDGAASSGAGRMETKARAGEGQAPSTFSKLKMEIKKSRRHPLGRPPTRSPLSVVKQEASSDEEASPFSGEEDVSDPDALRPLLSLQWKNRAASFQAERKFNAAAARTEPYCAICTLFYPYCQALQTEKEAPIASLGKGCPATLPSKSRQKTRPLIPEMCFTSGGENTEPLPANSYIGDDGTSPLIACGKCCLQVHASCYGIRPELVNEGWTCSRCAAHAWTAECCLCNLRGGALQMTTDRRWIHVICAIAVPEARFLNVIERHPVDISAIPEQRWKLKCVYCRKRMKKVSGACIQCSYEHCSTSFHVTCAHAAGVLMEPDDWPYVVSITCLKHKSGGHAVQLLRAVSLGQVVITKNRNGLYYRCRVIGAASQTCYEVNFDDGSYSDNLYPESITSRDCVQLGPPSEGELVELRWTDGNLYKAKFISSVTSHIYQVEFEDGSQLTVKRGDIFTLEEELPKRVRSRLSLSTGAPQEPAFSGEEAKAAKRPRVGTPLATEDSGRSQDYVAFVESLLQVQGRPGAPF
# [2] = target: B1
# [3] = target: the molecule itself
"YFP fluorescence (BiFC), Average (arbitrary units) [1]","YFP fluorescence (BiFC), Max (arbitrary units) [1]","YFP fluorescence (BiFC), Median (arbitrary units) [1]","YFP fluorescence (BiFC), Min (arbitrary units) [1]","YFP fluorescence (BiFC), Average (arbitrary units) [2]","YFP fluorescence (BiFC), Max (arbitrary units) [2]","YFP fluorescence (BiFC), Median (arbitrary units) [2]","YFP fluorescence (BiFC), Min (arbitrary units) [2]","YFP fluorescence (BiFC), Average ([2]; partners not purified) [arbitrary units]","YFP fluorescence (BiFC), Max ([2]; partners not purified) [arbitrary units]","YFP fluorescence (BiFC), Median ([2]; partners not purified) [arbitrary units]","YFP fluorescence (BiFC), Min ([2]; partners not purified) [arbitrary units]",Molecule,"YFP fluorescence (BiFC), Average [3] [arbitrary units]","YFP fluorescence (BiFC), Max [3] [arbitrary units]","YFP fluorescence (BiFC), Median [3] [arbitrary units]","YFP fluorescence (BiFC), Min [3] [arbitrary units]"
129,320,120,48,170,356,146,50,,,,,KDM4B with a C-terminal YN or YC tag (from UniProt O94953 1-1096) (enzyme),,,,
,,,,,,,,,,,,B1,741,2890,628,204
110,309,104,19,,,,,845,3080,717,320,"KDM4A with a C-terminal YN or YC tag (enzyme, human, UniProt O75164 1-1064, looked up, Lysine demethylase KDM4A (JmjD2A), human, ORF amplified from pCMV-HA-JmjD2A; BiFC pair: one molecule stands for the YN and the YC conjugate; also called KDM4A-YN; KDM4A-YC; source: HEK293, transiently transfected, in cells; not shown: YN (Venus YFP residues 1-172) on one copy or YC (Venus YFP residues 155-238) on the other, C-terminal, kept) MASESETLNPSARIMTFYPTMEEFRNFSRYIAYIESQGAHRAGLAKVVPPKEWKPRASYDDIDDLVIPAPIQQLVTGQSGLFTQYNIQKKAMTVREFRKIANSDKYCTPRYSEFEELERKYWKNLTFNPPIYGADVNGTLYEKHVDEWNIGRLRTILDLVEKESGITIEGVNTPYLYFGMWKTSFAWHTEDMDLYSINYLHFGEPKSWYSVPPEHGKRLERLAKGFFPGSAQSCEAFLRHKMTLISPLMLKKYGIPFDKVTQEAGEFMITFPYGYHAGFNHGFNCAESTNFATRRWIEYGKQAVLCSCRKDMVKISMDVFVRKFQPERYKLWKAGKDNTVIDHTLPTPEAAEFLKESELPPRAGNEEECPEEDMEGVEDGEEGDLKTSLAKHRIGTKRHRVCLEIPQEVSQSELFPKEDLSSEQYEMTECPAALAPVRPTHSSVRQVEDGLTFPDYSDSTEVKFEELKNVKLEEEDEEEEQAAAALDLSVNPASVGGRLVFSGSKKKSSSSLGSGSSRDSISSDSETSEPLSCRAQGQTGVLTVHSYAKGDGRVTVGEPCTRKKGSAARSFSERELAEVADEYMFSLEENKKSKGRRQPLSKLPRHHPLVLQECVSDDETSEQLTPEEEAEETEAWAKPLSQLWQNRPPNFEAEKEFNETMAQQAPHCAVCMIFQTYHQVEFGGFNQNCGNASDLAPQKQRTKPLIPEMCFTSTGCSTDINLSTPYLEEDGTSILVSCKKCSVRVHASCYGVPPAKASEDWMCSRCSANALEEDCCLCSLRGGALQRANDDRWVHVSCAVAILEARFVNIAERSPVDVSKIPLPRFKLKCIFCKKRRKRTAGCCVQCSHGRCPTAFHVSCAQAAGVMMQPDDWPFVVFITCFRHKIPNLERAKGALQSITAGQKVISKHKNGRFYQCEVVRLTTETFYEVNFDDGSFSDNLYPEDIVSQDCLQFGPPAEGEVVQVRWTDGQVYGAKFVASHPIQMYQVEFEDGSQLVVKRDDVYTLDEELPKRVKSRLSVASDMRFNEIFTEKEVKQEKKRQRVINSRYREDYIEPALYRAIME",943,3140,726,259
